Reference: publication PMC4228395, “Detrimental effect of the 6 His C-terminal tag on YedY enzymatic activity and influence of the TAT signal sequence on YedY synthesis” (BMC Biochemistry, 2013)

Key:
Assay in all cases: purified protein
Format in all cases: biochemical, Cereibacter sphaeroides
Details in all cases: 0.2 mM dithionite-reduced benzyl viologen as electron donor, 100 mM MES pH 6.0, anaerobic
C[S+](C)[O-] [1] = tested on: T1, C[S+](C)[O-]
T1 construct: mature enzyme expressed without TAT signal peptide; N-terminal 6His-TEV site kept; plasmid pSM181 in R. sphaeroides dmsA- strain

C[S+](C)[O-] [2] = tested on: T2, C[S+](C)[O-]
T2 construct: mature periplasmic enzyme, TAT signal peptide cleaved; N-terminal 6His-TEV site (ENLYFQ) kept; plasmid pSM196 in R. sphaeroides dmsA- strain; monomer; molybdenum cofactor

C[S+](C)[O-] [3] = tested on: T3, C[S+](C)[O-]
T3 construct: mature enzyme, TAT signal peptide cleaved; N-terminal 6His tag cut off by TEV protease, GHM left at N-terminus; pSM196 in R. sphaeroides dmsA- strain; monomer

YedY, N-ter tag (-SS) (Cereibacter sphaeroides f. sp. denitrificans)
Km (C[S+](C)[O-] [1]): 43 ± 6 mM

YedY, N-ter tag (+SS) (Cereibacter sphaeroides f. sp. denitrificans)
Km (C[S+](C)[O-] [2]): 71 mM

YedY, No tag (+SS) (Cereibacter sphaeroides f. sp. denitrificans)
Km (C[S+](C)[O-] [3]): 61 ± 7 mM
